Data as given in patent US20240065978A1, “FORMULATIONS OF GLUCAGON-LIKE-PEPTIDE-2 (GLP-2) ANALOGUES” (Zealand Pharma A/S, priority 2018, published 2024).

Assays:
[1] = in vivo; cited from earlier work
[2] = covalently linked oligomers by size exclusion HPLC (peak area %); assay type: physicochemical; conditions: for Covalently linked oligomers: 24 months at 2-8° C., 230 mM mannitol, 15 mM histidine, pH 7
Description: As shown in the examples, this amount of covalently bonded oligomers can be determined using size exclusion chromatography and determining the area under the peaks for monomeric GLP-2 analogue and oligomers respectively. This can be done using a Dionex Ultimate3000 HPLC system, giving a linear gradient, at a flow rate of 0.5 mL/min was used for the analysis. The mobile phase consisted of 0.1% TFA in 45% acetonitrile and 55% Milli-Q water. A wavelength of 215 nm was used for detection. This means that the formulations of the present invention generally contain the GLP-2 analogue at a concentration of about 2 mg/mL to about 30 mg/mL, more preferably at a concentration of about 15 mg/mL to about 25 mg/mL, and most preferably at a concentration of about 20 mg/mL. In some aspects of the present invention, it is preferred that the concentration of the GLP-2 analogue is selected so that the formulation contains 10% or less, more preferably 5% or less, more preferably 4% or less, more preferably 3% or less, and more preferably 2% or less of the GLP-2 analogue in the form of covalently bonded oligomeric products, preferably after 18 months storage. By way of illustration, the amount of covalently bonded oligomeric product may be in the range of between 2% to 5%, more preferably in the range of between 2% to 4%, and most preferably in the range of between 2% to 3%.
For detection of covalently linked oligomers, a Dionex Ultimate3000 HPLC system, giving a linear gradient, at a flow rate of 0.5 mL/min was used for the analysis. The mobile phase consisted of 0.1% TFA in 45% acetonitrile and 55% Milli-Q water. A wavelength of 215 nm was used for detection. The injection amount was 4 μg of peptide. The column used for the separation of the covalently formed peptides was a TSKgel SuperSW2000 (TSK BioScience) with a 4 μm particle size and dimensions of 300*4.6 mm. The overall runtime was 25 minutes. For chemical stability evaluation of the peptide monomer a C18 column with an acidic mobile phase and an acetonitrile gradient was used.
Stock solutions of mannitol (700 mM), L-histidine (200 mM) and ZP1848 peptide (acetate salt; 60 mg/mL) in water (Milli-Q) were prepared. Mannitol and histidine solutions were mixed in amounts appropriate to give 230 mM mannitol and 15 mM histidine. Peptide stock solution was added to a final concentration of 0.2, 2 and 20 mg/mL, respectively. Water was added up to 90% of final volume. If necessary, pH was adjusted to pH 7 using 1 M acetic acid/0.5 M L-arginine. Water was added up to the final volume.
The oligomers of ZP1848-acetate are well separated from the ZP1848-acetate monomer and are all integrated as one peak. The area percentage of the peaks was used to quantify the amount of oligomers, in particular covalently linked dimers and trimers. […]
(§1) Stock solutions of mannitol (700 mM), histidine (200 mM) and ZP1848 peptide solution (acetate salt; approx. 50 mg/mL) in Milli-Q water were prepared. Final concentration of peptide was 20 mg/mL, mannitol 230 mM, histidine 15 mM. Peptide stock solution was added to give the desired final peptide content. Water was added up to 90% of final volume. If necessary, pH was then adjusted to the desired formulation pH using 1 M acetic acid/0.5 M L-arginine. Water was added up to the final volume. Each formulation was filled in vials. Sample containers were visually inspected for clarity and viscosity and analysed for covalently linked oligomers by SEC, and peptide monomer stability by HPLC.

[3] = visual inspection for clarity and viscosity; assay type: physicochemical; conditions: 20 mg/mL; for Visual inspection Clear and non-viscous?: mannitol 230 mM, 24 hours at room temperature
Description: Stock solutions of mannitol (700 mM), phosphate buffer (200 mM) and ZP1848-acetate peptide (60.2 mg/mL) in water (Milli-Q) were prepared. Water was added up to 90% of final volume. If necessary, pH was then adjusted to the desired formulation pH using 1 M acetic acid/0.5 M L-arginine. Water was added up to the final volume. Sample containers were visually inspected for clarity and viscosity after 24 hours at room temperature.
Vials were visually inspected for clarity and viscosity. The viscosity was measured using a microVISC™ viscosimeter. The hydrodynamic radius was measured using a Wyatt DynaPro II Dynamic Light Scattering (DLS) Platereader. The sample size loaded on the plates was 170 μl. […]
as §1
Stock solutions of mannitol (700 mM), histidine (200 mM), and ZP1848 peptide solution (acetate salt; approx. 50 mg/mL) in Milli-Q water were prepared. Final concentration of peptide was 20 and 2 mg/mL, mannitol 230 mM, and histidine 15 mM. Water was added up to 90% of final volume. If necessary, pH was then adjusted to the desired formulation pH (7.0) using 1 M acetic acid/0.5 M L-arginine. Water was added up to the final volume. Each formulation was filled in vials. Sample containers were visually inspected for clarity and viscosity and analysed for peptide monomer stability by HPLC.

[4] = viscosity measured with microVISC viscosimeter; assay type: physicochemical; conditions: 20 mg/ml ZP1848-acetate, pH 7, acetate 6-15% (FIG. 2)
Description: In the examples below, the viscosity of the liquid formulations of the present invention is shown to be dependent on the total acetate concentration. Preferably, the formulations have a viscosity between 0.8 and 2.0 mPa/sec as measured at 25° C. Conveniently, the viscosity may be measured by using microVISC™. In parallel, the hydrodynamic radius may be measured using a Dynamic Light Scattering, DLS, Platereader (Wyatt DynaPro II). Samples were prepared having a drug substance (DS) of the GLP-2analogue containing 6% acetate and to mimic DS having 7.8-15% acetate, then acetate was added. Data from manufacturing formulations having varied the acetate concentration from 6.7-15% is shown below in FIG. 2. The effect of controlling the total acetate concentration is that the injectability of formulations of the present invention can be modulated, for example by reducing the total acetate concentration to provide a less viscous formulation that may be more easily injected.
Samples were prepared using a drug substance (DS) of the GLP-2 analogue ZP1848-acetate containing 6% acetate. […]
Vials were visually inspected for clarity and viscosity. The viscosity was measured using a microVISC™ viscosimeter. The hydrodynamic radius was measured using a Wyatt DynaPro II Dynamic Light Scattering (DLS) Platereader. […]

CC[C@H](C)[C@H](NC(=O)[C@H](Cc1ccccc1)NC(=O)[C@H](CC(=O)O)NC(=O)[C@H](CCCNC(=N)N)NC(=O)[C@H](C)NC(=O)[C@H](C)NC(=O)[C@H](CC(C)C)NC(=O)[C@H](CC(N)=O)NC(=O)[C@H](CC(=O)O)NC(=O)[C@H](CC(C)C)NC(=O)[C@@H](NC(=O)[C@@H](NC(=O)[C@H](CC(N)=O)NC(=O)[C@H](CCSC)NC(=O)[C@H](CCC(=O)O)NC(=O)[C@H](CC(=O)O)NC(=O)[C@H](CO)NC(=O)[C@H](Cc1ccccc1)NC(=O)[C@H](CO)NC(=O)CNC(=O)[C@H](CC(=O)O)NC(=O)CNC(=O)[C@@H](N)Cc1c[nH]cn1)[C@@H](C)O)[C@@H](C)CC)C(=O)N[C@@H](CC(N)=O)C(=O)N[C@@H](Cc1c[nH]c2ccccc12)C(=O)N[C@@H](CC(C)C)C(=O)N[C@H](C(=O)N[C@@H](CCC(N)=O)C(=O)N[C@H](C(=O)N[C@@H](CCCCN)C(=O)N[C@H](C(=O)N[C@H](C(=O)N[C@@H](CC(=O)O)C(=O)O)[C@@H](C)O)[C@@H](C)CC)[C@@H](C)O)[C@@H](C)CC [teduglutide]
half-life [1]: about two

(H-HGEGTFSSELATILDALAARDFIAWLIATKITDKKKKKK-NH2), x(CH3COOH) (also: acetate salt) [ZP1848-acetate]
Covalently linked oligomers ([2]; 0.2 mg/mL): 2.60% | formation of covalent oligomers, increase per week ([2]; 2 mg/mL, 3 weeks at 40° C.): 0.27% | formation of covalent oligomers ([2]; 2 mg/mL, after 3 weeks at 40° C.): 1.2% | formation of covalent oligomers, increase per week ([2]; 20 mg/mL, 3 weeks at 40° C.): 0.21% | Covalently linked oligomers ([2]; 20 mg/mL): 1.35% | formation of covalent oligomers ([2]; 20 mg/mL, after 3 weeks at 40° C.): 0.9% | concentration dependence for oligomer formation ([2]; long term storage at 2-8° C.): inversely dependent on increasing concentration of the GLP-2 analogue | formation of covalent oligomers ([2]; sorbitol, 3 weeks at 40° C.): 1.1% | Visual inspection ([3]; pH 6.5-7.5, 20-50 mM phosphate buffer, 24 hrs at room temperature): turbid and/or highly viscous | viscosity as a function of acetate concentration [4]: increases in a non-linear manner at higher acetate concentration

H-HGEGTFSSELATILDALAARDFIAWLIATKITDKKKKKK-NH2 [ZP1848]
Covalently linked oligomers ([2]; 2 mg/mL): 1.91% | initial value of the amount of oligomer ([2]; initial, before storage): less than 0.1% | Visual inspection Clear and non-viscous? ([3]; pH 6.5, phosphate 20 mM): No | Visual inspection Clear and non-viscous? ([3]; pH 7.0, phosphate 20 mM): No | Visual inspection Clear and non-viscous? ([3]; pH 7.0, phosphate 50 mM): No | Visual inspection Clear and non-viscous? ([3]; pH 7.5, phosphate 20 mM): No
